Here are results for one molecule from patent US12605469B2, “Tumor specific antibody conjugates and uses therefor” (The University of North Carolina at Charlotte, priority 2019, dated 2026).

“Also recorded” adds a separate entry of the source.

The test system of test [1] is human pancreas and breast tumor tissue. Briefly: immunohistochemical staining of human tumor and normal tissue. The class given is binding. The following applies: IHC. The source says:
FIGS. 1A and 1B are a series of photomicrographs depicting specific binding of an exemplary antibody of the presently disclosed subject matter to human and mouse pancreatic tumors. The dark staining in the panels is indicative of positive binding of the exemplary antibody to cells present in the sample. […] FIG. 1B is a series of photomicrographs depicting the binding of an exemplary antibody of the presently disclosed subject matter to spontaneous tumors present in the pancreas of 6, 16, 26, and 34 week old transgenic mice that carried a human MUC1 transgene and a K-ras^G12D mutation.
FIGS. 2A and 2B are a series of photomicrographs depicting specific binding of an exemplary antibody of the presently disclosed subject matter (i.e., a horse radish peroxidase (HRP)-labeled TAB-004 anti-MUC1 monoclonal antibody) to human breast tumor tissue. […]
Epitope screening determined that the TAB-004 monoclonal antibody (mAb) described herein bound to an epitope present within SEQ ID NO: 3. […]

The test system of test [2] is CTCs. Briefly: […] measurement of MUC1-expressing CTCs. In kind it is cell-based, human. Particulars: 7.5 ml blood spiked with PANC1 cells. The procedure:
Both breast and pancreatic primary and metastatatic tumors express high levels of tumor-associated MUC1 recognized by the TAB-004 antibody of the presently disclosed subject matter. Therefore, CTCs in these patients should be recognized by the TAB-004 antibody. In preliminary experiments, levels of MUC1 were assessed using the TAB-004 antibody. First, the ability to use the Veridex […]® system to measure MUC1-expressing CTCs using 7.5 ml blood samples (analogous to human samples) spiked with PANC1 cells, which are a human pancreatic cancer cell line was tested. Approximately 90% of the CTCs (EpCAM+ cells) expressed MUC1. […] Therefore, using the TAB-004 antibody appears to accurately detect micrometastases in pancreatic and breast cancer patients.

Test [3] deals with human breast cancer cell lines. Briefly: flow cytometry of breast cancer cell lines with TAB-004 conjugated to Cy7. In kind it is cell-based. Particulars: Cy7 conjugate. The procedure: FIG. 13 is a series of plots of flow cytometric analyses of TNBC cell lines stained with a Cy7-conjugated TAB-004 monoclonal antibody (1 μg/sample). Compared to isotype control (solid trace in each panel; red lines in color photo), all cell lines expressed high to moderate levels of tMUC. MDA-MB-231 is mesenchymal in phenotype and loses MUC1 in vitro while Hs578T is a mesenchymal stem-like carcinosarcoma that has low expression of tMUC (depicted with dashed lines in each panel).
A 45-panel human breast cancer cell lines were tested for tMUC expression with TAB-004 conjugated to Cy7 and flow cytometry. […] In particular, apart from those with a mesenchymal phenotype, all cell lines expressed high levels of tMUC.
On the technique in general: Flow cytometry measures light scatter and fluorescence of single cells or particles in a stream.

B1: TAB-004: mAb of the IgG isotype produced by hybridoma ATCC PTA-11550; binds tumor-specific epitope of human MUC1 (antibody, V domains shown)
VH: EVQLQQSGGERATPGASVKMSCKTSGYTFTNYWMHWVKQRPGQGLEWIGYINPSSGYTQYNQKFKDKATLTADKSSSTAYIQLSSLTSEDSAVYYCSTYYGDYLFPYWGQGTLVTVSA
VL: DVLMTQTPLSLPVSLGDQASISCRSSQDIVYGNGNTYLEWYLQKPGQSPKLLIYKVSNRFSGVPDRFSGSGSGTDFTLKISRVEAEDLGVYYCFQGSHVPYTFGGGTKLEIKR
Take B1: in test [1], the “staining of normal tissue” value is listed as “did not bind appreciably to normal pancreas or breast tissue; also recorded: did not bind to normal tissue” and the “staining of tumor tissue” value is “reacted strongly with tumor tissue; also recorded: strongly stained”. Moreover, the “CTCs (EpCAM+ cells) expressing MUC1” value in test [2] is given as “Approximately 90%”. The “staining of breast cancer cell line subtypes” value in test [3] (45-panel) is given as “stained strongly”. Also, in test [3], the “staining of MDA-MB-231 cell line” value is given as “stained weakly”.
